From paper PMC4620443, “Screening and Identifying a Novel ssDNA Aptamer against Alpha-fetoprotein Using CE-SELEX” come the findings set out here.

This data set addresses T1, alpha-fetoprotein (AFP) (UniProt P02771 19-609).
T1 sequence: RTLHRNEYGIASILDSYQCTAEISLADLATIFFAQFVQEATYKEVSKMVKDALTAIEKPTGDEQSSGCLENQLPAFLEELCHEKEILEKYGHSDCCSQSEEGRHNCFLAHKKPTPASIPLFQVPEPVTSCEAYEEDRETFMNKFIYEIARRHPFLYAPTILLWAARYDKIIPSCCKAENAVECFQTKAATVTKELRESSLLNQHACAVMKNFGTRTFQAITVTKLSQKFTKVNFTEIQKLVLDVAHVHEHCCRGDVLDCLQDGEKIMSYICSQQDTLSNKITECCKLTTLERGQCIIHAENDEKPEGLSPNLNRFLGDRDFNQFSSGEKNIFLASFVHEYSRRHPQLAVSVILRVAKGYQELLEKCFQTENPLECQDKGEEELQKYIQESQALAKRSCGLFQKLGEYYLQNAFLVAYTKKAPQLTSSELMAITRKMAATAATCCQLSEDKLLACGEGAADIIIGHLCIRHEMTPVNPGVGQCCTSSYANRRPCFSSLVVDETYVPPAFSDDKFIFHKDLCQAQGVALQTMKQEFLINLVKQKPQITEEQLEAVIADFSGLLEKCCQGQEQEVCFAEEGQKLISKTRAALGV
The data set can be described thus: capillary electrophoresis (CE-LIF); CE-LIF: 10 uM FAM-aptamer with 100 ug/ml AFP, 25 C, PVA-coated capillary, -8 kV with 0.5 psi; CE buffer composition and pH not given in the material. As to conditions: protein: commercial; label: 5' 6-FAM.

B1: AP244 (ssDNA)
DNA: GTGACGCTCCTAACGCTGACGGCCCGTCAATCCCCGCGTATCCATTGGTCCTTTACCTGTCCGTCCGAACCAATC
The Kd is the constant that tells how readily two partners part at equilibrium. The low end stands for higher affinity, the high end for lower affinity. B1 came in with an equilibrium dissociation constant (Kd) of 4.8 µM.

B2: AP211 (ssDNA)
DNA: GTGACGCTCCTAACGCTGACTTTTTGGGAATGCGTATGTATGCTCGCCACGTACGCCTGTCCGTCCGAACCAATC
For B2, the binding result is given as “no binding”.

B3: AP250 (ssDNA)
DNA: GTGACGCTCCTAACGCTGACACAGTTGCTAAGAGCCGCCTCTGAACCTATCGAGGCCTGTCCGTCCGAACCAATC
On to B3, for which the binding result is listed as “binds”.

B4: AP206 (ssDNA)
DNA: GTGACGCTCCTAACGCTGACTTTTAATTCTTGTTTATTGGTATATCCGCCTCTGACCTGTCCGTCCGAACCAATC
Turning to B4, the binding result is listed as “binds”.

B5: AP273 (ssDNA)
DNA: GTGACGCTCCTAACGCTGACTCAGGTGCAGTTCTCGACTCGGTCTTGATGTGGGTCCTGTCCGTCCGAACCAATC
Regarding B5, the Kd turned out to be 0.5 µM.
